Assay results: patent US11667697

What was measured:
[1] = target: CPXV ortholog of A33 (cowpox virus); assay: lysate ELISA
[2] = target: MPXV ortholog of A33 (monkeypox virus); assay: lysate ELISA
[3] = target: VARV ortholog of A33 (variola virus); assay: purified antigen ELISA
[4] = target: MPXV ortholog of A33 (monkeypox virus); assay: cell-based or functional assay
[5] = target: CPXV ortholog of L1 (cowpox virus); assay: lysate ELISA
[6] = target: MPXV ortholog of L1 (monkeypox virus); assay: lysate ELISA
[7] = target: VARV ortholog of L1 (variola virus); assay: purified antigen ELISA
[8] = target: CPXV ortholog of L1 (cowpox virus); assay: cell-based or functional assay
[9] = target: MPXV ortholog of L1 (monkeypox virus); assay: cell-based or functional assay
[10] = target: VACV A21 protein (vaccinia virus); assay: purified antigen ELISA
[11] = target: CPXV ortholog of H3 (cowpox virus); assay: lysate ELISA
[12] = target: MPXV ortholog of H3 (monkeypox virus); assay: lysate ELISA
[13] = target: CPXV ortholog of H3 (cowpox virus); assay: cell-based or functional assay
[14] = target: MPXV ortholog of H3 (monkeypox virus); assay: cell-based or functional assay
[15] = target: CPXV ortholog of A27 (cowpox virus); assay: lysate ELISA
[16] = target: MPXV ortholog of the A27 VACV protein (monkeypox virus); assay: lysate ELISA
[17] = target: MPXV ortholog of the A27 VACV protein (monkeypox virus); assay: purified antigen ELISA
[18] = target: VARV ortholog of A27 (variola virus); assay: purified antigen ELISA
[19] = target: CPXV ortholog of A27 (cowpox virus); assay: cell-based or functional assay
[20] = target: MPXV ortholog of the A27 VACV protein (monkeypox virus); assay: cell-based or functional assay
[21] = target: CPXV ortholog of I1 (cowpox virus); assay: lysate ELISA
[22] = target: MPXV ortholog of I1 (monkeypox virus); assay: lysate ELISA
[23] = target: VACV I1 protein (vaccinia virus); assay: lysate ELISA
[24] = target: CPXV ortholog of A25 (cowpox virus); assay: lysate ELISA
[25] = target: MPXV ortholog of A25 (monkeypox virus); assay: lysate ELISA
[26] = target: VACV A25 protein (vaccinia virus); assay: lysate ELISA
[27] = target: CPXV ortholog of B5 (cowpox virus); assay: lysate ELISA
[28] = target: MPXV ortholog of B5 (monkeypox virus); assay: lysate ELISA
[29] = target: VARV ortholog of B5 (variola virus); assay: purified antigen ELISA
[30] = target: CPXV ortholog of B5 (cowpox virus); assay: cell-based or functional assay
[31] = target: MPXV ortholog of I1 (monkeypox virus); assay: cell-based or functional assay

B1: VACV-22 (antibody, V domains shown)
VH: QVQLVESGGGVVQPGRSLRLSCAASGFTFSNSGMHWVRQAPGKGLEWVAVIWFDGTNKYYADSVKGRFTISRDNSKNTLYLQMNSLRAEDTAVYYCARVPCGGDCYSGYLQHWGQGTLVTVSS
VL: AIVMTQSPATLSVSPGERATLSCRASQSVSSTLAWYQQKPGQAPRLLIYGASTKATGIPARFSGSGSGTEFTLTISSLQSEDFAVYYCQHYNNWPPLLTFGGGTKVDIK
EC50 [1]: > 0.009 µg/mL
EC50 [2]: > 0.006 µg/mL
EC50 [3]: 0.02 µg/mL
PRNT Emax, MPXV EV+C' [4]: 72%
PRNT IC50, MPXV EV+C' [4]: 50 µg/mL

B2: MPXV-87 (antibody, V domains shown)
V domain 1: QVQLVQSGAEVKKPGASVKVSCKASGYTFTSHGIIWVRQAPGQGLEWMGWISVYNDNTNSAQKFQDRVTMTTATSTSTAYMELRSLRSDDTAVYYCARSSSGPRYYYYGMDVWGQGTTSP
V domain 2: QSVVTQPPSVSGAPGQRVTISCTGSSSNIGAGYAVHWYYQLPGIAPKLLIFGNNNRPSGVPDRFSGSKSGTSASLAITGLQAEDEADYYCQSYDSSLSGWVFGGGTQVTVL
EC50 [5]: 3 ng/mL
EC50 [6]: 1 ng/mL
EC50 [7]: 0.3 µg/mL
PRNT Emax, CPXV MV [8]: 63%
PRNT Emax, CPXV MV+C' [8]: 82%
PRNT IC50, CPXV MV [8]: 0.8 µg/mL
PRNT IC50, CPXV MV+C' [8]: 0.6 µg/mL
PRNT Emax, MPXV MV [9]: 57%
PRNT Emax, MPXV MV+C' [9]: 65%
PRNT IC50, MPXV MV [9]: 50 µg/mL
PRNT IC50, MPXV MV+C' [9]: 50 µg/mL

B3: VACV-318 (antibody, V domains shown)
VH: SYELTQPPSVSVSPGQTARITCSGDELPKRYAYWYQQKSGQAPVLVIYEDTKRPSGIPERFSGSSSGTVATLTISGAQVDDEADYYCYSTDSTSNHKRVFGGGTQVTVL
V domain: QVQLVESGGGVVQPGRSLRLSCTASGFNFSYYGIHWVRQAPGKGLQWVALISYDGSDKYYADSVKGRFTVSRDYSKNTLFLQMNSLRGDDTAVYYCQMVKVPFYFWGQGTMVTLSS
EC50 [10]: 1.3 µg/mL

B4: MPXV-79 (antibody, V domains shown)
VH: QVQLVQSGAEVKKPGASVKVSCKASGYSFRSNGISWVRQAPGQGFEWLGWIAAYNGDTKYVQKFQGRLTMTTDTSTDTAYMELWSLRSDDTAVYYCARDPKLGRKGSAFDIWGQGTLVIVSS
VL: EIVLTQSPATLSLSPGGRATLSCRASQSVGNYLTWYQQKPGQAPRLLIFDGSTRATGIPARFSGSGSGTDFTLTISSLEPEDFAVYYCLQRSDLYTFGQGTKVDIK
EC50 [11]: 4 ng/mL
EC50 [12]: 3 ng/mL
PRNT Emax, CPXV MV+C' [13]: 81%
PRNT IC50, CPXV MV+C' [13]: 0.2 µg/mL
PRNT Emax, MPXV MV [14]: 67%
PRNT IC50, MPXV MV [14]: 12.5 µg/mL

B5: VACV-301 (antibody, V domains shown)
VH: EVQLLESGGGLVQPGGSLRLSCAASGFSFSSYAMSWVRQAPGKGLEWVSGIGNSGDRTFYADSAKGRFTIFRDNSNNRLYLQMNSLRAADTAVYYCAKWGRFESGAFWGQGVLVTVSS
VL: SYELTQSPSVSVSPGQTARITCSGDALPEQYAYWYQQKPGQAPVLVIYKDSERPSGIPERFSGSGSGTTVTLTITGVQAEDEADYYCQSADNSGTYEVFGTGTKVTVL
EC50 [15]: > 1.4 µg/mL
EC50 [16]: > 5.6 µg/mL
EC50 [17]: 0.04 µg/mL
EC50 [18]: 0.11 µg/mL
PRNT Emax, CPXV MV+C' [19]: 86%
PRNT IC50, CPXV MV+C' [19]: 4 µg/mL
PRNT Emax, MPXV MV [20]: 84%
PRNT Emax, MPXV MV+C' [20]: 92%
PRNT IC50, MPXV MV [20]: 1.6 µg/mL
PRNT IC50, MPXV MV+C' [20]: 0.8 µg/mL

B6: MPXV-31 (antibody, V domains shown)
VH: QLQLQESGPGLVKPSETLSLTCTVSGGSISSRNFFWAWIRQPPGKGLEFIGSIFYSGGTYYNPSLKSRLSISVDTSRNQFSLRLSSVTAADTAVYYCARHMIVVLPGVPISTSFDPWGQGTL
VL: DIVMTQSPDSLAVSLGERATINCKSSQSVLSNSNNKNYLAWYQQKPGQPPRLLIYWASARESGVPDRFSGSGSGTDFTLTIISLQPEDVAVYYCQQYYSPPAELSFGGGTKVDIK
EC50 [21]: 0.01 µg/mL
EC50 [22]: 40 ng/mL
EC50 [23]: 0.01 µg/mL

B7: MPXV-9 (antibody, V domains shown)
VH: QVQLVQSGAEVKKPGASVKVSCKASGYNLTTYDIVWVRQAAGQGLEWMGWMNPKSGNTAYAERFQGRVTMTRNTSISTAYMELSSLRSEDTAVYYCARSLDSLRFLEWFHQNYYYFMDVWGKGTTVT
VL: EIVLTQSPATLSLSPGERATLSCRASQTIGGYLAWYQQIPGQAPRLLIYDASNRATGIPARFSGSGSGTDFTLTISSLEPEDFAVYYCQLRSTFGGGTKVDIK
EC50 [24]: 0.876 µg/mL
EC50 [25]: 0.107 µg/mL
EC50 [26]: 0.022 µg/mL

B8: VACV-314 (antibody, V domains shown)
VH: QVQLVQSGPGLVKPSETLSLTCTVSGGSISSYYWSWIRQPPGKGLEYIGHIYYSGGTKYNPSLRSRVTISVDTSKNQFSLKLTSVTAADTAVYYCARLAGRKPDADSWGQGTLVTVSS
VL: QPVLTQEPSLTVSPGGTVTLTCASSTGAVTSGFFPNWLQQKPGQAPRALIYSTNNKHSWTPARFSGSLLGGKAALTLSGVQPEDEAEYYCLLYYGGVVVFGGGTKLTVL
EC50 [11]: 4 ng/mL
EC50 [12]: 3 ng/mL
PRNT Emax, CPXV MV+C' [13]: 85%
PRNT IC50, CPXV MV+C' [13]: 0.7 µg/mL
PRNT Emax, MPXV MV+C' [14]: 84%
PRNT IC50, MPXV MV+C' [14]: 0.8 µg/mL

B9: MPXV-51 (antibody, V domains shown)
VH: QLQLQESGPGLVKPSETLSLSCTVSGGSINSRTYYWGWIRQPPGKGPEWIGTVFHNVSTLYTSSLRSRVTISVDTSKNRFSLKLTSVTAADTAVYFCGRLTPRNLFRGTLVRWVDPWGQGILVTVSS
VL: EIVLAQSPGTLSLSPGERATLSCRASHNLNSNYLAWYQQKPGQAPRLLIYGASSRATGIPDRFTGSGSGTDFTLTISRLEPEDFAVYYCQQYAGSLTFGGGTKVDIK
EC50 [1]: 0.024 µg/mL
EC50 [2]: 0.025 µg/mL
EC50 [3]: 0.04 µg/mL
PRNT Emax, MPXV EV+C' [4]: 77%
PRNT IC50, MPXV EV+C' [4]: 0.8 µg/mL

B10: MPXV-66 (antibody, V domains shown)
VH: QVQLQQWGAGLLKPSETLSLTCAVHGGSFSGYFWSWIRQPPGKGLEWIGEMNHSGSTNYNPSLKSRVTISVDTSKKQFSLKLNSVTAADTAVYYCARTARTVRYFENWGQGTLVTVSS
VL: DIVMTQSPDSLAVSLGERATINCKSSQTVLYNSNNYSYLTWYQQKPGQPPRVLIYWASTRESGVPDRFSGSGSGTDFTLTISSLQAENVALYYCQQYYSTPWTFGQGTKVDIK
EC50 [27]: > 29 µg/mL
EC50 [28]: > 16 µg/mL
EC50 [29]: 0.16 µg/mL
PRNT Emax, CPXV EV+C' [30]: 86%
PRNT IC50, CPXV EV+C' [30]: 0.03 µg/mL

B11: VACV-309 (antibody, V domains shown)
VH: EVQLLESGGGLVQPGESLKLSCAASGFTFSSYAMNWVRQAPGKGLEWVSGISGSGGSTYYADSVKGRFTVSRDNSKNTLYLQMNSLRAEDTAVYYCAKDNNYYYYGMDVWGQGTTVTVSS
VL: AIQMTQSPSSLSASVGDRVTITCRASQGIRNDLGWYQQKPGKAPKLLIYAASSLQSGVPSRFSGSGSGTDFTLTISSLQPEDFATYYCLQDYNYPRMFGQGTKVDIK
EC50 [24]: 0.005 µg/mL
EC50 [25]: 0.001 µg/mL
EC50 [26]: 0.005 µg/mL

B12: MPXV-71 (antibody, V domains shown)
V domain 1: EVQLVESGGGLVQPGESLKISCSASGFTFSDYAMHWVRQAPGQGLQYVSAISSNGHSTYYADSVKGRFTFSRDNSKNTLYLQMSSLRPEDTAVYYCVRCLLRGLISPFDYWGQGTLV
V domain 2: QSVLTQPPSVSEAPRQRVTISCSGSSSNIGNNAVNWYQQLPGKAPKLLIYYDDLLPSGVSDRFSGSKSGTTASLTISGPPEDEADFYCSTWDYSLSARVFGGGTQVTVL
EC50 [21]: 0.014 µg/mL
EC50 [22]: 6 ng/mL
EC50 [23]: 0.022 µg/mL

B13: MPXV-97 (antibody, V domains shown)
VH: QVQLVQSGGGVVQPGRSLTLSCSASGFIFTRYGLHWVRQAPGKGLEWVAVISSDGTNRHYADSVKGRFTVSRDNSKSTLYVQMNSLRNEDTAVYYCARLSLEAAWYFDLWGRGTLVTVSS
VL: QSVVTQPPSVSGAPGQRVTISCTGSSSNIGAGYDVHWYQHLPGTAPKVLIYGNTNRPSGVPDRFSGSKSGTSASLAITGLQAEDEADYYCQSYDNSLNGPWVFGTGTQ
EC50 [21]: > 50 µg/mL
EC50 [22]: 1 ng/mL
EC50 [23]: 0.008 µg/mL
PRNT Emax, MPXV MV [31]: 96%
PRNT Emax, MPXV MV+C' [31]: 76%
PRNT IC50, MPXV MV [31]: 0.02 µg/mL
PRNT IC50, MPXV MV+C' [31]: 0.02 µg/mL

B14: VACV-315 (antibody, V domains shown)
VH: EVQLLESGGGLVQPGGSLKLSCAASGFIFSNYAMGWVRQAPGKGLEWVSALSASDGVTSYADSVKGRFTISRDNSKNTMYLQMNRLRTEDTAIYFCAKGRARVNNIYRYFDHWGQGTLVTVSS
VL: QSVLTQPASVSGSPGQSITISCTGTSSDVGAYTFVSWYQHHPGKAPKLIIYEVSNRPSGVSDRFSGSKSGNTASLTISGLQAEDEADYYCNSYTTTSPWVFGGGTQLTVL
EC50 [11]: 2 ng/mL
EC50 [12]: 1 ng/mL
PRNT Emax, CPXV MV+C' [13]: 70%
PRNT IC50, CPXV MV+C' [13]: 2.8 µg/mL
